The results in this text go back to article PMC13624870.

In test [1] the target is amyloid-β 40 (Aβ40). Nature of the test: ITC; ZF2–4 (300 µM) titrated into monomeric Aβ40 (20 µM); one-set-of-sites model; 20 mM HEPES, pH 7.4, 1 mM DTT; 10°C; heat of dilution of ZF2–4 subtracted.
Test [2] concerns the target fluorophore-conjugated Aβ40 (HF488Aβ40). In words: other fluorescence titration; fluorescence quenching of fluorophore-conjugated Aβ40 (HF488Aβ40) by ZF2–4; conditions in Figure S9.
The target in test [3] is amyloid-β 40 (Aβ40).
The target of test [4] is uniformly 15N-labeled Aβ40. In words: NMR titration; 2D 1H–15N SOFAST–HMQC of 20 µM 15N-labeled Aβ40 with 200 µM ZF2–4 or ZFx′; 20 mM HEPES, pH 7.4, 1 mM DTT, 10% v/v D2O; 10°C.

Regarding “ZF2–4 (tandem array of three Cys2His2-type zinc finger modules of PARIS) (domain or fragment)”, in the test with amyloid-β 40 (Aβ40) [1], the Kd came to 1960 nM, the dH is -1.31 kcal/mol and the stoichiometry N (Aβ40 per ZF2–4) is 1.7. Also, in test [2], the Kd is 320 nM and the stoichiometry N (Aβ40 per ZF2–4) was determined as 1.5. This substance registered a decrease in the size of Aβ40 liquid droplets (LLPS, confocal microscopy) with equimolar ZF2–4 (100 µM each) relative to Aβ40 alone with amyloid-β 40 (Aβ40) [3] of 93.7%. Moreover, in test [4], the average decrease in NMR signal intensity of 15N-labeled Aβ40 was 41.9%.
